Assay results as given in paper PMC8648840, “Functional consequences of TCF4 missense substitutions associated with Pitt-Hopkins syndrome, mild intellectual disability, and schizophrenia” (The Journal of Biological Chemistry, 2021).
Substitutions are numbered along the chain they refer to. In names and notes the source's numbering stands.

T1: achaete-scute homolog 1 (ASCL1), expressed in cells (UniProt P50553 1-236)
T1 sequence (looked up): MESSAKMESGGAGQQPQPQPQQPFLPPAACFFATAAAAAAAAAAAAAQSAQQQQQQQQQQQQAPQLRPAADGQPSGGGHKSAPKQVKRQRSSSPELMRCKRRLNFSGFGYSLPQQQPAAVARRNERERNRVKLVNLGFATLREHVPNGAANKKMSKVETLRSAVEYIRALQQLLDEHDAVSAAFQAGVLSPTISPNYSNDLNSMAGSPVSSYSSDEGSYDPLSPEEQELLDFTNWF

B1: TCF4-B¯ A587P (natural protein, human, UniProt P15884-3 1-671, looked up)
chain: MHHQQRMAALGTDKELSDLLDFSAMFSPPVSSGKNGPTSLASGHFTGSNVEDRSSSGSWGNGGHPSPSRNYGDGTPYDHMTSRDLGSHDNLSPPFVNSRIQSKTERGSYSSYGRESNLQGCHQQSLLGGDMDMGNPGTLSPTKPGSQYYQYSSNNPRRRPLHSSAMEVQTKKVRKVPPGLPSSVYAPSASTADYNRDSPGYPSSKPATSTFPSSFFMQDGHHSSDPWSSSSGMNQPGYAGMLGNSSHIPQSSSYCSLHPHERLSYPSHSSADINSSLPPMSTFHRSGTNHYSTSSCTPPANGTDSIMANRGSGAAGSSQTGDALGKALASIYSPDHTNNSFSSNPSTPVGSPPSLSAGTAVWSRNGGQASSSPNYEGPLHSLQSRIEDRLERLDDAIHVLRNHAVGPSTAMPGGHGDMHGIIGPSHNGAMGGLGSGYGTGLLSANRHSLMVGTHREDGVALRGSHSLLPNQVPVPQLPVQSATSPDLNPPQDPYRGMPPGLQGQSVSSGSSEIKSDDEGDENLQDTKSSEDKKLDDDKKDIKSITSNNDDEDLTPEQKAEREKERRMANNARERLRVRDINEPFKELGRMVQLHLKSDKPQTKLLILHQAVAVILSLEQQVRERNLNPKAACLKRREEEKVSSEPPPLSLAGPHPGMGDASNHMGQM
B2: TCF4-B¯ N585D (natural protein, human, UniProt P15884-3 1-671, looked up)
chain: B1 chain with N581D, P583A
B3: TCF4-B¯ S253R (natural protein, human, UniProt P15884-3 1-671, looked up)
chain: B1 chain with S253R, P583A
B4: TCF4-B¯ R569W (natural protein, human, UniProt P15884-3 1-671, looked up)
chain: B1 chain with R565W, P583A
B5: Transcription factor 4 isoform TCF4-A¯, wild type (natural protein, human, UniProt P15884-6 1-507, looked up)
chain: MYCAYTIPGMGGNSLMYYYNGKAVYAPSASTADYNRDSPGYPSSKPATSTFPSSFFMQDGHHSSDPWSSSSGMNQPGYAGMLGNSSHIPQSSSYCSLHPHERLSYPSHSSADINSSLPPMSTFHRSGTNHYSTSSCTPPANGTDSIMANRGSGAAGSSQTGDALGKALASIYSPDHTNNSFSSNPSTPVGSPPSLSAGTAVWSRNGGQASSSPNYEGPLHSLQSRIEDRLERLDDAIHVLRNHAVGPSTAMPGGHGDMHGIIGPSHNGAMGGLGSGYGTGLLSANRHSLMVGTHREDGVALRGSHSLLPNQVPVPQLPVQSATSPDLNPPQDPYRGMPPGLQGQSVSSGSSEIKSDDEGDENLQDTKSSEDKKLDDDKKDIKSITSNNDDEDLTPEQKAEREKERRMANNARERLRVRDINEAFKELGRMVQLHLKSDKPQTKLLILHQAVAVILSLEQQVRERNLNPKAACLKRREEEKVSSEPPPLSLAGPHPGMGDASNHMGQM

Target: T1, achaete-scute homolog 1 (ASCL1), …
Assay: cell-based or functional assay

Row | Binder | luciferase reporter (12 μE5 E-boxes, minimal promoter) in HEK293 cells, coexpressed with ASCL1; reduction against WT TCF4-B¯ [fold] | luciferase reporter (12 μE5 E-boxes, minimal promoter) in HEK293 cells, coexpressed with ASCL1; increase against WT TCF4-B¯ [fold] | luciferase reporter in rat primary neurons, basal conditions, coexpressed with ASCL1; increase against WT TCF4-B¯ [fold] | luciferase reporter (12 μE5 E-boxes, TK promoter) in depolarized rat primary neurons; increase when ASCL1 was coexpressed [fold]
1 | B1 | 4.8 | – | – | –
2 | B2 | – | 1.6 | 2.4 | –
3 | B3 | 1.4 | – | – | –
4 | B4 | – | 2.2 | 2.8 | –
5 | B5 | – | – | – | 2.5
